These results are taken from patent EP2014310A2 (Dyax Corporation, dated 2009).

In assay [1] the target is T1, human KDR-Fc fusion (R&D Systems #357-KD-050) (human, UniProt P35968 20-764).
T1 construct: bought
Kind of assay: phage binding screen on KDR-Fc; class legend in paragraph 246.

Assay [2] deals with KDR on human umbilical vein endothelial cells (HUVECs) (human, UniProt P35968 20-1356). As to the kind of experiment: cell-based or functional assay.
In assay [3] the target is T1, human KDR-Fc fusion (R&D Systems …). Kind of assay: Biacore, KDR-Fc on CM5 chip, unlabeled peptide.
Assay [4] has the same target. As to the kind of experiment: fluorescence anisotropy, fluorescein-labeled peptide.

Bridge positions count the residues as written; N and C are the ends.

T1 sequence (P35968 20-764): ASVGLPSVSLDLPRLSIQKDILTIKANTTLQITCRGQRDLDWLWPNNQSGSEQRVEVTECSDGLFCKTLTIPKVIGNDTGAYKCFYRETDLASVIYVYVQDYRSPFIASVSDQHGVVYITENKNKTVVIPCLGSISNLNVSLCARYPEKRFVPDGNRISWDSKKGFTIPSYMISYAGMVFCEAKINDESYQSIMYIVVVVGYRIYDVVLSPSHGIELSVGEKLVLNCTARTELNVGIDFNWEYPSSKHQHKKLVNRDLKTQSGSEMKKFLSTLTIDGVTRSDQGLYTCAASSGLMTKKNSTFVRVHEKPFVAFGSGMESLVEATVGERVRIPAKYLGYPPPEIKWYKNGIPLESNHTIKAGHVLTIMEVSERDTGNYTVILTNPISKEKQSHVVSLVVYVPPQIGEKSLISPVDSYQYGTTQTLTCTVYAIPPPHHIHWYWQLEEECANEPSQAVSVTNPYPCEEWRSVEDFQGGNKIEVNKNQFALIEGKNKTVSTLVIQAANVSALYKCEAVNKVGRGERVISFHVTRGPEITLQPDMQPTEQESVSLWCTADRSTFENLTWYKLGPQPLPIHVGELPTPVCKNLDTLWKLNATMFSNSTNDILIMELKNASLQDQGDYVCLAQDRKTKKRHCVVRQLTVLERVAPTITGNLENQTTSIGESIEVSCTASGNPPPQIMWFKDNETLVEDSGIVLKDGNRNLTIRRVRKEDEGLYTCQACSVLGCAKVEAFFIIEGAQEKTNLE
KDR on human umbilical vein endothelial cells (HUVECs), sequence (P35968 20-1356): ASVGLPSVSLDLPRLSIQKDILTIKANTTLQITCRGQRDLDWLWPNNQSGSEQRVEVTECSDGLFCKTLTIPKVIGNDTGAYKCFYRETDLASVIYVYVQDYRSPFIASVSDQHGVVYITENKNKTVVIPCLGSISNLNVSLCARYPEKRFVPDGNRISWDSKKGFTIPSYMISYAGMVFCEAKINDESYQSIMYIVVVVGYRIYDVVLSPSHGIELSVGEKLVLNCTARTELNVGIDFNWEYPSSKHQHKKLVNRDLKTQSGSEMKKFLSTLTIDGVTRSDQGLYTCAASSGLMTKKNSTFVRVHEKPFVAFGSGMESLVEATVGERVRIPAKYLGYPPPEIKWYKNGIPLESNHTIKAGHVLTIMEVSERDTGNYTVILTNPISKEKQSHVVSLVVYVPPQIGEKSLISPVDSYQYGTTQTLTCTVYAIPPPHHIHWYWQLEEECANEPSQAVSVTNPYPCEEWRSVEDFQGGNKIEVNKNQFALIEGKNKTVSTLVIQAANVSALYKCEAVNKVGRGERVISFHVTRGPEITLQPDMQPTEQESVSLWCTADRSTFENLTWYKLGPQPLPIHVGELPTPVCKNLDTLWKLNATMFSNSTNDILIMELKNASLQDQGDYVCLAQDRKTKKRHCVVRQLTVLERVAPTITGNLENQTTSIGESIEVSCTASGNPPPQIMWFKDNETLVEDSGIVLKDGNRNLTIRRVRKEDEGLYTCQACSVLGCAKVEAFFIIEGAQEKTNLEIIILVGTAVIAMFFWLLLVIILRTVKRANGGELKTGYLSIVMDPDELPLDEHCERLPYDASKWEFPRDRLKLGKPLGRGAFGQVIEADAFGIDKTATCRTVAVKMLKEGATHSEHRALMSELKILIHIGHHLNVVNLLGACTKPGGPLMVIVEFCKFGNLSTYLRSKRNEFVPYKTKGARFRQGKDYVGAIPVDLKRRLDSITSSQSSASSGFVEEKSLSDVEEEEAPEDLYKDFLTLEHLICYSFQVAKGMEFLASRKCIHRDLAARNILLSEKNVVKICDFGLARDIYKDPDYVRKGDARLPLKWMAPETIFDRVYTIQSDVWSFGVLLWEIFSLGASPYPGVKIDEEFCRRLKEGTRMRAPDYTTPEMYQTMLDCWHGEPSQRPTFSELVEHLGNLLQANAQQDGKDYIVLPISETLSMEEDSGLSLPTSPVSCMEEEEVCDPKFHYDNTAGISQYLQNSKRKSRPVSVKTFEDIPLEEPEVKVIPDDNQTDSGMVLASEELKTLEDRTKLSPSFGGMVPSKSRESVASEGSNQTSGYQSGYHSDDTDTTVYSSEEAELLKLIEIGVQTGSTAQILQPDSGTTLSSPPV

For WESDYWDQMRQQLKTAYMKV [phage isolate WESDYWDQMRQQLKTAYMKV], in assay [1], the binding result is on record as “binds”.
Regarding Ac-AGWLECYAEFGHCYNFGTGGGK-NH2 (disulfide 6-13 (inferred); not fully specified) [SEQ ID NO:267], the “VEGF-induced KDR phosphorylation in HUVECs” value in assay [2] was ≥ 50 % inhibition at 10 µM.
On to EWYWTEHVGMKHGFFV [phage isolate EWYWTEHVGMKHGFFV], for which the binding result in assay [1] is “binds”.
The same measure, in the same setting: the entry for ISPWREMSGWGMPWITAVPH [phage isolate ISPWREMSGWGMPWITAVPH] is “binds”; for PEDSEAWYWLNYRPTMFHQL [phage isolate PEDSEAWYWLNYRPTMFHQL] it is “binds”.
Turning to Ac-AQRGDYQEQYWHQQLVEQLKLLGGK-NH2 (not fully specified) [SEQ ID NO:308], the Kd in assay [3] came out at 5300 nM; in assay [4], 310 nM.
As for DALEAPKRDWYYDWFLNHSP [phage isolate DALEAPKRDWYYDWFLNHSP], the binding result in assay [1] is given as “binds”.
Same read-out and setting: next, GSDHVRVDNYWWNGMAWEIF [phage isolate GSDHVRVDNYWWNGMAWEIF]: “binds”.
Turning to Ac-GDYPWCHELSDSVTRFCVPWDPGGGK-NH2 (disulfide 6-17 (inferred); not fully specified) [SEQ ID NO:293], the Kd in assay [3] is 180 nM; in assay [4], 980 nM.
Regarding AFEIEYWDSVRNKIWQHFPD [phage isolate AFEIEYWDSVRNKIWQHFPD], the binding result in assay [1] was “binds”.
Turning to Ac-GSDHHCYLHNGQWICYPFAPGGGK-NH2 (disulfide 6-15 (inferred); not fully specified) [SEQ ID NO:314], the values for the Kd in assay [3] and in assay [4] were 150 nM and 260 nM, respectively.
MPPGFSYWEQAALHDDAQDL [phage isolate MPPGFSYWEQAALHDDAQDL]: the binding result in assay [1] was “binds”.

B1: SEQ ID NO:264 (peptide)
peptide: Ac-AGPKWCEEDWYYCMITGTGGGK-NH2
modifications: cysteine pairing not given here; also: C-terminal Lys fluorescein-labeled for some assays, unlabeled for others
In turn, B1 registered a Kd in assay [3] of 27 nM.
Ac-GDGWACAKWPWGGEICQPSDPGGGK-NH2 (disulfide 6-16 (inferred); not fully specified) [SEQ ID NO:300]: the figures for the Kd in assay [3] and in assay [4] were 1500 nM and 1000 nM, respectively.
Consider QIEYVNDKWYWTGGYWNVPF [phage isolate QIEYVNDKWYWTGGYWNVPF], for which, in assay [1], the binding result is on record as “binds”.
Still for that read-out and setting: the entry for DWYWREWMPMHAQFLADDW [phage isolate DWYWREWMPMHAQFLADDW] is “binds”; for RDEWGWTGVPYEGEMGYQIS [phage isolate RDEWGWTGVPYEGEMGYQIS] it is “binds”.
Still for that read-out and setting: next, FPSQMWQQKVSHHFFQHKGY [phage isolate FPSQMWQQKVSHHFFQHKGY]: “binds”.
Ac-AQDWYYDEILSMADQLRHAFLSGGGK-NH2 (not fully specified) [SEQ ID NO:310] displayed an equilibrium dissociation constant (Kd) in assay [3] of 50 nM.
Consider FDVVNWGDGIWYAYPS [phage isolate FDVVNWGDGIWYAYPS], for which the binding result in assay [1] is on record as “binds”.
The same measure, in the same setting: the entry for DWYYDEILSMADQLRHAFLS [phage isolate DWYYDEILSMADQLRHAFLS] is “binds”; for EWDAQYWHDLRQQYMLDYIQ [phage isolate EWDAQYWHDLRQQYMLDYIQ] it is “binds”; for DWYWQRERDKLREHYDDAFW [phage isolate DWYWQRERDKLREHYDDAFW] it is “binds”.
The same measure, in the same setting: next, TKWGPNPEHWQYWYSHYASS [phage isolate TKWGPNPEHWQYWYSHYASS]: “binds”.
As for Ac-GDDHMCRSPDYQDHVFCMYWDPGGGK-NH2 (disulfide 6-17 (inferred); not fully specified) [SEQ ID NO:295], the Kd in assay [3] turned out to be 140 nM; in assay [4], 480 nM.
As for VSKGSIDVGEGISYWEIIEL [phage isolate VSKGSIDVGEGISYWEIIEL], in assay [1], the binding result is “binds”.
Still for that read-out and setting: next, LEEVFEDFQDFWYTEHIIVDR [phage isolate LEEVFEDFQDFWYTEHIIVDR]: “binds”.
Regarding VCWEDSWGGEVCFRYDPGGGK [SEQ ID NO:337 monomeric free peptide (VCWEDSWGGEVCFRYDPGGGK)], the “IC50, receptor activation assay” value in assay [2] was 1000 nM.
Regarding Ac-GDNWECGWSNMFQKEFCARPDPGGGK-NH2 (disulfide 6-17 (inferred); not fully specified) [SEQ ID NO:303], the Kd in assay [3] was determined as 990 nM; in assay [4], 210 nM.
For Ac-GDGSWCEMRQDVGKWNCFSDDPGGGK-NH2 (disulfide 6-17 (inferred); not fully specified) [SEQ ID NO:299], in that order: 180 nM and 620 nM.
Consider STNGDSFVYWEEVELVDHPY [phage isolate STNGDSFVYWEEVELVDHPY], for which the binding result in assay [1] is given as “binds”.
On to Ac-AGIDFCKGMAPWLCADMGTGGGK-NH2 (disulfide 6-14 (inferred); not fully specified) [SEQ ID NO:311], for which the Kd in assay [3] was determined as 180 nM; in assay [4], 730 nM.
As to AQMPPWWPLAVDALFDWFE [phage isolate AQMPPWWPLAVDALFDWFE], the binding result in assay [1] was “binds”.
Still for that read-out and setting: the entry for ARMGDDWEEAPPHEWGWADG [phage isolate ARMGDDWEEAPPHEWGWADG] is “binds”; for WYHDGLHNERKPPSHWIDNV [phage isolate WYHDGLHNERKPPSHWIDNV] it is “binds”; for SYEQWLPQYWAQYKSNYFL [phage isolate SYEQWLPQYWAQYKSNYFL] it is “binds”.
The same measure, in the same setting: next, EEQQALYPGCEPAEHWVYAG [phage isolate EEQQALYPGCEPAEHWVYAG]: “binds”.
